The text below walks through data of the RNAGym collection of RNA variant scans (doi:10.7554/elife.90254).

The labels stand for the following.
B1: LINE1-full (parent)
chain: UACGUAGGUGGUUUUCCCCUGAUAGUGCUAAGGGGGCCUGGAAGUUUGGACUGGGCAGAGCUCAACACAGCGUGGCAAAGUGGCUGUGGCUAGACUGCCUCUCUGGAUUCCUCGUCACUCAGCAGGGCAUCUCUGAGAGAAAUGCC

In this data set the parent is B1. The data set can be described thus: self-cleavage, relative activity (ratio to wild type); higher = more cleavage; in vitro, sequencing; the parent is a self-cleaving ribozyme.
Consider UACGUAGGUGGUUUUCCCCUGAUAGUGCUAAGGGGACCUGGAAGUUUGGACUGGGCAGAGCUCAACACAGCGUGGCAAAGUGGCUGUGGCUAGACUGCCUCUCUGGAUUCCUCGUCACUCAGCAGGGCAUCUCUGAGAGGAAUGCC [G36A A140G], for which the self-cleavage is 1.3.

For the variant UACGUAGGUGGUUUUCCCCUGAUAGUGCUAAGGGGCCCUGGAAGUUUGGACUGGGCAGAGCUCAACACAGCGUGGCAAAGUGGCUGUGGCUAGACUGCCUCUCCGGAUUCCUCGUCACUCAGCAGGGCAUCUCUGAGAGAAAUGCC [G36C U104C], the self-cleavage came out at 1.87.

On to UACGUAGGUGGUUUUCCCCUGAUAGUGCUAAGGGGACCUGGAAGUUUGGACUGGGCAGAGCUCAACACAGCGUGGCAAAGUGGCUGUGGCUAGACUGCCUCUCUGGAAUCCUCGUCACUCAGCAGGGCAUCUCUGAGAGAAAUGCC [G36A U108A], for which the self-cleavage turned out to be 1.23.

Take UACGUAGGUGGUUUUCCCCUGAUAGUGCUAAGGGGACCUGGAAGUUUGGACUGGGCAGAGCUCAACACAGCGUGGCAAAGUGGCUGUGGCUAGACUGCCUCUCUGGACUCCUCGUCACUCAGCAGGGCAUCUCUGAGAGAAAUGCC [G36A U108C]: the self-cleavage was determined as 1.37.

As for UACGUAGGUGGUUUUCCCCUGAUAGUGCUAAGGGGACCUGGAAGUUUGGACUGGGCAGAGCUUAACACAGCGUGGCAAAGUGGCUGUGGCUAGACUGCCUCUCUGGAUUCCUCGUCACUCAGCAGGGCAUCUCUGAGAGAAAUGCC [G36A C63U], the self-cleavage came to 0.36.

Regarding UACGUAGGUGGUUUUCCCCUGAUAGUGCUAAGGGGACCUGGAAGUUUGGACUGGGCAGAGCUCAACACAGCGUGGCAAAGUGGCUGUGGCUAGACUGCCUCUCUGGAUUCCUCGUCACUCAGCAGGGCAUCUCUGAGGGAAAUGCC [G36A A138G], the self-cleavage was 1.53.

Regarding UACGUAGGUGGUUUUCCCCUGAUAGUGCUAAGGGGCCCUGGAAGUUUGGACUGGGCAGAGCUCAACACAGCGUGGCAAAGUGGCUGCGGCUAGACUGCCUCUCUGGAUUCCUCGUCACUCAGCAGGGCAUCUCUGAGAGAAAUGCC [G36C U87C], the self-cleavage was determined as 0.25.

Turning to UACGUAGGUGGUUUUCCCCUGAUAGUGCUAAGGGGCCCUGGAAGUUUGGACUGGGCAGAGCUCAACACAGCGUGGCAAAGUGGCUGUGGCUAGACUGCCUCUCUGGAUUCCUCGUCACUCAGCAGGGCAUCUCUGAGAGAAAUGCC [G36C], the self-cleavage is 1.07.

Take UACGUAGGUGGUUUUCCCCUGAUAGUGCUAAGGGGUCCUGGAAGUUUGGACUGGGCAGAGCUCAACACAGCGUGGCAAAGUGGCUGUGGCUAGACUGCCUCUCUGGAUUCCUCGUCACUCAGCAGGGCAUCUCUGAGAGAAAUGCC [G36U]: the self-cleavage turned out to be 1.35.

With UACGUAGGUGGUUUUCCCCUGAUAGUGCUAAGGGGCCCUGGAAGUUUGGACAGGGCAGAGCUCAACACAGCGUGGCAAAGUGGCUGUGGCUAGACUGCCUCUCUGGAUUCCUCGUCACUCAGCAGGGCAUCUCUGAGAGAAAUGCC [G36C U52A], the self-cleavage is 0.45.

With UACGUAGGUGGUUUUCCCCUGAUAGUGCUAAGGGGCCCUGGAAGUUAGGACUGGGCAGAGCUCAACACAGCGUGGCAAAGUGGCUGUGGCUAGACUGCCUCUCUGGAUUCCUCGUCACUCAGCAGGGCAUCUCUGAGAGAAAUGCC [G36C U47A], the self-cleavage was 0.89.

As for UACGUAGGUGGUUUUCCCCUGAUAGUGCUAAGGGGCCCUGGAAGUUUGGACUGGGCAGAGCUCCACACAGCGUGGCAAAGUGGCUGUGGCUAGACUGCCUCUCUGGAUUCCUCGUCACUCAGCAGGGCAUCUCUGAGAGAAAUGCC [G36C A64C], the self-cleavage was 0.35.

UACGUAGGUGGUUUUCCCCUGAUAGUGCUAAGGGGUCCUGGAAGUUUGGACUGGGCAGAGCUCAACACAGCGUGGCAAAGUGGCUGUGGCUAGGCUGCCUCUCUGGAUUCCUCGUCACUCAGCAGGGCAUCUCUGAGAGAAAUGCC [G36U A94G]: the self-cleavage amounted to 0.12.

Regarding UACGUAGGUGGUUUUCCCCUGAUAGUGCUAAGGGGCCCUGGAAGUUUGGACUGGGCAGAGCUCAACACAGCGUGGCAAAGCGGCUGUGGCUAGACUGCCUCUCUGGAUUCCUCGUCACUCAGCAGGGCAUCUCUGAGAGAAAUGCC [G36C U81C], the self-cleavage worked out at 0.9.

As to UACGUAGGUGGUUUUCCCCUGAUAGUGCUAAGGGGCCCUGGAAGUUUGGACUGGACAGAGCUCAACACAGCGUGGCAAAGUGGCUGUGGCUAGACUGCCUCUCUGGAUUCCUCGUCACUCAGCAGGGCAUCUCUGAGAGAAAUGCC [G36C G55A], the self-cleavage was 0.13.

UACGUAGGUGGUUUUCCCCUGAUAGUGCUAAGGGGACCUGGAAGUUUGGACUGGGCAGAGCUCAACACAGCGUGGCAAAGUGGCUGUGGCUAGACUGCCUCUCUGGAUUCCUCGUUACUCAGCAGGGCAUCUCUGAGAGAAAUGCC [G36A C116U]: the self-cleavage is 1.41.

Turning to UACGUAGGUGGUUUUCCCCUGAUAGUGCUAAGGGGACCUGGAAGUUUGGACUGGGCAGAGCUCAACACAGCGUGGCAAAGUGGCUGUGGCUAGGCUGCCUCUCUGGAUUCCUCGUCACUCAGCAGGGCAUCUCUGAGAGAAAUGCC [G36A A94G], the self-cleavage turned out to be 0.34.

Turning to UACGUAGGUGGUUUUCCCCUGAUAGUGCUAAGGGGACCUGGAAGUUUGGACUGGGCAGUGCUCAACACAGCGUGGCAAAGUGGCUGUGGCUAGACUGCCUCUCUGGAUUCCUCGUCACUCAGCAGGGCAUCUCUGAGAGAAAUGCC [G36A A59U], the self-cleavage was 0.67.

For the variant UACGUAGGUGGUUUUCCCCUGAUAGUGCUAAGGGGACCAGGAAGUUUGGACUGGGCAGAGCUCAACACAGCGUGGCAAAGUGGCUGUGGCUAGACUGCCUCUCUGGAUUCCUCGUCACUCAGCAGGGCAUCUCUGAGAGAAAUGCC [G36A U39A], the self-cleavage was 1.3.

For the variant UACGUAGGUGGUUUUCCCCUGAUAGUGCUAAGGGGACCUGGAAGUUUGGACUGGGCAGAGCGCAACACAGCGUGGCAAAGUGGCUGUGGCUAGACUGCCUCUCUGGAUUCCUCGUCACUCAGCAGGGCAUCUCUGAGAGAAAUGCC [G36A U62G], the self-cleavage is 0.01.

For UACGUAGGUGGUUUUCCCCUGAUAGUGCUAAGGGGACCUGGAAGUUUGGACUGGGCUGAGCUCAACACAGCGUGGCAAAGUGGCUGUGGCUAGACUGCCUCUCUGGAUUCCUCGUCACUCAGCAGGGCAUCUCUGAGAGAAAUGCC [G36A A57U], the self-cleavage is 0.12.

Turning to UACGUAGGUGGUUUUCCCCUGAUAGUGCUAAGGGGACCUGGAAGUUUGGACUGGGCAGAGCUCAACACAGCGUGGCAAAGUGGCUGUGGCUAGACUGCCUCUCUGGAUUCCUCGUCACUCAGCAGGGCAUCUCUGGGAGAAAUGCC [G36A A136G], the self-cleavage was found to be 1.43.

Take UACGUAGGUGGUUUUCCCCUGAUAGUGCUAAGGGGCCCUGGAAGUUUGGACUGGGCAGAGCUCAACACAGCGUGGCAAAGUGGCUGUGGCUAGACUGCCUCUCUGGAUUCCUCGUCACUCAGCAGGGCAUCUCUGAGAGGAAUGCC [G36C A140G]: the self-cleavage worked out at 1.12.

As for UACGUAGGUGGUUUUCCCCUGAUAGUGCUAAGGGGACCUGGAAGUUUGGACUGGGCAGAGCUCAACACAGCGUGGCAGAGUGGCUGUGGCUAGACUGCCUCUCUGGAUUCCUCGUCACUCAGCAGGGCAUCUCUGAGAGAAAUGCC [G36A A78G], the self-cleavage was 1.32.

Consider UACGUAGGUGGUUUUCCCCUGAUAGUGCUAAGGGGCCCUGGAAGUUUGGACUGGGCAGAGCUCAACACAGCGUGGCAAAGUGGCUGUGGCUAGACUGCCUCUCUGGAUUCCUCGUCACUCAGCAGGGCAUCUCUGAGAGAAAAGCC [G36C U143A], for which the self-cleavage is 0.7.

In the case of UACGUAGGUGGUUUUCCCCUGAUAGUGCUAAGGGGACCUGGAAGUUUGGACUGGGCAGAGCUCAACACAGCGUGGCAAAGUGGCUGUGGCUAGACUGCCUCUCUGGAUUCCUCGUCACUCAGCAGGGCAUCUCUGAGAGAAGUGCC [G36A A142G], the self-cleavage worked out at 1.09.

For UACGUAGGUGGUUUUCCCCUGAUAGUGCUAAGGGGCCCUGGAAGUUUGGACUGGGCAGAGCUCAACACAGCGUUGCAAAGUGGCUGUGGCUAGACUGCCUCUCUGGAUUCCUCGUCACUCAGCAGGGCAUCUCUGAGAGAAAUGCC [G36C G74U], the self-cleavage worked out at 1.21.

For UACGUAGGUGGUUUUCCCCUGAUAGUGCUAAGGGGACCUGGAAGGUUGGACUGGGCAGAGCUCAACACAGCGUGGCAAAGUGGCUGUGGCUAGACUGCCUCUCUGGAUUCCUCGUCACUCAGCAGGGCAUCUCUGAGAGAAAUGCC [G36A U45G], the self-cleavage was 0.92.

UACGUAGGUGGUUUUCCCCUGAUAGUGCUAAGGGGCCCUGGAAGUUUGGACUGGGCAGAGCUCAACACAGCGUGGCAAAGUGGCUGUGGCUAGACUGCCUCCCUGGAUUCCUCGUCACUCAGCAGGGCAUCUCUGAGAGAAAUGCC [G36C U102C]: the self-cleavage was found to be 1.08.

Take UACGUAGGUGGUUUUCCCCUGAUAGUGCUAAGGGGCCCUGGAAGUUUGGACUGGGCAGAGCUCAACACAGCGUGGCAAAGUGGCUGUGGCUAGACUGCCUCUCUGGGUUCCUCGUCACUCAGCAGGGCAUCUCUGAGAGAAAUGCC [G36C A107G]: the self-cleavage came out at 2.05.

Take UACGUAGGUGGUUUUCCCCUGAUAGUGCUAAGGGGACCUGGAAGUUUGGACUGGGCAGAGCUCAACACAGCGAGGCAAAGUGGCUGUGGCUAGACUGCCUCUCUGGAUUCCUCGUCACUCAGCAGGGCAUCUCUGAGAGAAAUGCC [G36A U73A]: the self-cleavage was found to be 1.84.

As for UACGUAGGUGGUUUUCCCCUGAUAGUGCUAAGGGGACCUGGAAGUUUGGACUGGGCAGAGCUCAACACAGCGUGGCAAAGUGGCUGUGGCUAGACUGCCCCUCUGGAUUCCUCGUCACUCAGCAGGGCAUCUCUGAGAGAAAUGCC [G36A U100C], the self-cleavage came to 2.05.

As to UACGUAGGUGGUUUUCCCCUGAUAGUGCUAAGGGGACCUGGAAGUUUGGACUGGGCAGAGCUCAACACAGCGUGGCAAAGAGGCUGUGGCUAGACUGCCUCUCUGGAUUCCUCGUCACUCAGCAGGGCAUCUCUGAGAGAAAUGCC [G36A U81A], the self-cleavage was found to be 2.04.

With UACGUAGGUGGUUUUCCCCUGAUAGUGCUAAGGGGACCUGGAAGUUUGGACUGGGCAGAGCUCAACACAGCGUGGCAAAGGGGCUGUGGCUAGACUGCCUCUCUGGAUUCCUCGUCACUCAGCAGGGCAUCUCUGAGAGAAAUGCC [G36A U81G], the self-cleavage came to 1.08.

Turning to UACGUAGGUGGUUUUCCCCUGAUAGUGCUAAGGGGACCUGGAAGUUUGGACUGGGCAGAGCUCAACACAGCGUGGCAAAGUGGCAGUGGCUAGACUGCCUCUCUGGAUUCCUCGUCACUCAGCAGGGCAUCUCUGAGAGAAAUGCC [G36A U85A], the self-cleavage amounted to 0.04.

On to UACGUAGGUGGUUUUCCCCUGAUAGUGCUAAGGGGACCUGGAAGUUUGGACUGGGCAGAGCUCGACACAGCGUGGCAAAGUGGCUGUGGCUAGACUGCCUCUCUGGAUUCCUCGUCACUCAGCAGGGCAUCUCUGAGAGAAAUGCC [G36A A64G], for which the self-cleavage was found to be 0.13.

In the case of UACGUAGGUGGUUUUCCCCUGAUAGUGCUAAGGGGCCCUGGAAGUUUGGACUGGGCAGAGCUCAACACAGCGUGGCAAAGUGGCUGUGGCUAGACUGCCUCUCUGGAUUCCUCGUCGCUCAGCAGGGCAUCUCUGAGAGAAAUGCC [G36C A117G], the self-cleavage amounted to 1.51.

For UACGUAGGUGGUUUUCCCCUGAUAGUGCUAAGGGGACCUGGAAGUUUGGACUGGGCAGAGCUCAACACAGCGUGGCAAAGUGGCUGUGGCUAGACUGCCUCUCUGGAUUCCUCGUCACUCGGCAGGGCAUCUCUGAGAGAAAUGCC [G36A A121G], the self-cleavage came out at 1.1.

Consider UACGUAGGUGGUUUUCCCCUGAUAGUGCUAAGGGGACCUGGAAGUUUGGACUGGGCAGAGCUCAACACAGCGUGGCAAAGUGGCUGUGGCUAGACUGCCUCCCUGGAUUCCUCGUCACUCAGCAGGGCAUCUCUGAGAGAAAUGCC [G36A U102C], for which the self-cleavage is 1.14.
